Results on two substances are retold here after patent US20160046725A1.

Assay [1] deals with human Axl receptor on human tumor cells (UniProt P30530). Briefly: cell-based or functional assay.
Assay [2] has the same target. The experiment in a line: flow cytometry on SN12C cells, untreated (No Ab), labelled with 9G4 isotype control. For orientation: Flow cytometry measures light scatter and fluorescence of single cells or particles in a stream.
The target is the same in assay [3]. The experiment in a line: flow cytometry on SN12C cells treated 24 h with 9G4, labelled with 9G4 isotype control.
Assay [4] shares this target. The experiment in a line: quantitative flow cytometry (Qifikit) on A431 cells.
Assay [5] shares this target. Briefly: quantitative flow cytometry (Qifikit) on MDA-MB-435S cells.
Assay [6] shares this target. The experiment in a line: quantitative flow cytometry (Qifikit) on NCI-H226 cells.
Assay [7] shares this target. The experiment in a line: quantitative flow cytometry (Qifikit) on A172 cells.
Assay [8] shares this target. The experiment in a line: quantitative flow cytometry (Qifikit) on MDA-MB-231 cells.
The target is the same in assay [9]. Briefly: quantitative flow cytometry (Qifikit) on PC3 cells.
The target is the same in assay [10]. The experiment in a line: quantitative flow cytometry (Qifikit) on Calu-1 cells.
For assay [11] the target is unchanged. The experiment in a line: quantitative flow cytometry (Qifikit) on DU-145 cells.
The target is the same in assay [12]. Briefly: quantitative flow cytometry (Qifikit) on SN12C cells.
The target is the same in assay [13]. The experiment in a line: quantitative flow cytometry (Qifikit) on NCI-H125 cells.
Assay [14] shares this target. The experiment in a line: flow cytometry on SN12C cells, untreated (No Ab), labelled with MAB154.
Assay [15] has the same target. Briefly: quantitative flow cytometry (Qifikit) on MCF7 cells.
For assay [16] the target is unchanged. The experiment in a line: quantitative flow cytometry (Qifikit) on Panc1 cells.

Bounds are passed on as bounds.

Chain of human Axl receptor on human tumor cells (P30530 26-894 D266N): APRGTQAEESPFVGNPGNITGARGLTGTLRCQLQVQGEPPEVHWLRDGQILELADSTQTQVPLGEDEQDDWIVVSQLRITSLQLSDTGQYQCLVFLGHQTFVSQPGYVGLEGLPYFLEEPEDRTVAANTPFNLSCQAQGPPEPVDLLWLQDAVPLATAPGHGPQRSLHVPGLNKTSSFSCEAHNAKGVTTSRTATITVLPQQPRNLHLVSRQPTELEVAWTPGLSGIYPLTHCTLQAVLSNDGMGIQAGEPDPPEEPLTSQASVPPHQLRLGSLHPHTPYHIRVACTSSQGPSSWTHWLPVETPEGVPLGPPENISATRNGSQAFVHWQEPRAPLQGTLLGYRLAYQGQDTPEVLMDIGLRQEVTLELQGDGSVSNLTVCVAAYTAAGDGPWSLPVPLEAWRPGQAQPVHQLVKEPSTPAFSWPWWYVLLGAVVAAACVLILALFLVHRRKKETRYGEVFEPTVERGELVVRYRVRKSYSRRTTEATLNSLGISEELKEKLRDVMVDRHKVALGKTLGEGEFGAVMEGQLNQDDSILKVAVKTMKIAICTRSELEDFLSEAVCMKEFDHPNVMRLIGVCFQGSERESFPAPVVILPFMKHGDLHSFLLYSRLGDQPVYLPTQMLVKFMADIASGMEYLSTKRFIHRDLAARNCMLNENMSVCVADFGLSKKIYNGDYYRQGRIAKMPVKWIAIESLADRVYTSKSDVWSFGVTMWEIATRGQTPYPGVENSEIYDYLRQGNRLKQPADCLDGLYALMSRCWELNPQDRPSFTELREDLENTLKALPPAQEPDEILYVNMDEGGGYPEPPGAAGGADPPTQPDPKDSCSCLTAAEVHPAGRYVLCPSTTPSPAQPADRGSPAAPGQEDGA

“9G4 murine IgG1 isotype control antibody”: in [1], the % remaining Axl came to 117% and the Δ (MFI No Ab 24 h - MFI Ab 24 h) was -2 MFI. Besides, the MFI at T24 h in [2] was 11 MFI. The substance further displayed an MFI at T24 h in [3] of 13 MFI.
In the case of “MAB154 anti-Axl commercial antibody (R and D Systems)”, the ABC (Qifikit) was 3950 ABC in assay [4]; 17800 ABC in assay [5]; 32100 ABC in assay [6]; 52400 ABC in [7]; 61200 ABC in [8]; 8420 ABC in assay [9]. The ABC (Qifikit) in [10] is greater than 100000 ABC; in assay [11] it was 55300 ABC; in assay [12], greater than 100000 ABC; in assay [13], 5540 ABC; in [15] it was 71 ABC; in [16], 36800 ABC. The substance also returned an Antigen binding capacity (Qifikit) in [12] greater than 100000 ABC. This substance showed an MFI at T24 h in assay [14] of 950 MFI.
